Assay results as given in US20260274955A1 (JANUX THERAPEUTICS, published 2026).
No end group written: not given here.

Assays:
[1] = molecular target: T1, anti-CD28 Fab (SEQ ID NOs: 202, 203); assay: phage binding ELISA on captured biotinylated Fab;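 further: clonal phage supernatants added to wells preincubated with CD28 antigen or blocking buffer only, bound phage detected by ELISA with horseradish-conjugated anti-M13 antibody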
T1 construct: biotinylated and captured on neutravidin coated plates in the phage ELISA

[2] = molecular target: T1, anti-CD28 Fab (SEQ ID NOs: 202, 203); assay: phage binding ELISA on captured Fab, competitor CD28 antigen
[3] = molecular target: anti-CD28 Fab (SEQ ID NOs: 202, 203); assay: phage binding ELISA; captured anti-CD28 Fab pre-incubated with CD28 antigen as competitor, anti-M13-HRP detection
[4] = molecular target: anti-CD28 Fab (SEQ ID NOs: 202, 203); assay: phage binding ELISA; biotinylated anti-CD28 Fab captured on neutravidin plate, clonal phage supernatant, anti-M13-HRP detection;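 further: before crude clonal phage supernatants were added, wells were preincubated with CD28 antigen in blocking buffer or with blocking buffer only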
[5] = molecular target: T2, anti-CD28 Fab (SEQ ID NOs: 202, 203); assay: binding ELISA, peptide captured, anti-CD28 Fab titrated
T2 construct: biotinylated when captured in the phage ELISAs

[6] = molecular target: T3, Ab-1; assay: BLI (Octet), 200 nM peptide, 100 nM Ab-1;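 further: association and dissociation phases tracked in real time, with kinetics fitted to a 1:1 interaction model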
T3 construct: also called anti-CD28 scFv harbored in Ab-1

[7] = molecular target: T3, Ab-1; assay: binding ELISA, peptide captured, Ab-1 titrated
[8] = molecular target: T3, Ab-1; assay: BLI (Octet), peptide on sensor, Ab-1 titrated, 1:1 model
[9] = molecular target: T3, Ab-1; assay: competition ELISA, peptide titrated vs 1 nM Ab-1 binding plate-bound CD28

Binder	Anti-CD28 Fab (SEQ ID NOs: 202, 203) signal [1]	Anti-CD28 Fab signal in the presence of CD28 [2]	Anti-CD28 Fab signal in the presence of CD28 [3]	Anti-CD28 Fab (SEQ ID NOs: 202, 203) signal [4]	also measured
TCAAGATYAWPYCV [Phage-929]	2.21	0.09	–	–	–
TCSAGATYGWPACF [Phage-1244]	–	–	0.07	0.76	–
TCAAGATYLWPTCL (cysteine pairing not given here; also: biotinylated, site not given here) [Peptide-105]	–	–	–	–	EC50 [5]: 20.5 nM
GCAAGAEYNWPTCL [Phage-1251]	–	–	0.64	0.69	–
TCAAGANWEWPWCF [Phage-928]	2.22	0.08	–	–	–
TCAAGAHYPWPACL (cysteine pairing not given here; also: biotinylated, site not given here) [Peptide-106]	–	–	–	–	EC50 [5]: 4.2 nM
RCSAGFHYPLSLCL [Phage-933]	2.18	0.06	–	–	–
SCGGGFHYSWPLCF [Phage-1258]	–	–	0.15	0.55	–
SCSAGASYAWPMCI [Phage-1255]	–	–	0.06	0.59	–
TCSAGASNKLSLCL [Phage-931]	2.18	0.06	–	–	–
NCSAGATYPWPLCL [Phage-934]	2.17	0.07	–	–	–
SCAAGAGYGWPQCL [Phage-1257]	–	–	0.13	0.55	–
LCAAGAHYPWPQCL [Phage-937]	2.15	0.07	–	–	–
MCSAGANWPWPLCF [Phage-932]	2.18	0.07	–	–	–
TCSAGAQWEWPACL [Phage-1253]	–	–	0.08	0.67	–
ICAAGAGWPWPWCL [Phage-1245]	–	–	0.1	0.75	–
LCNAGATYSWPTCL [Phage-940]	2.14	0.06	–	–	–
TCSAGATYTWSKCF [Phage-939]	2.15	0.06	–	–	–
TCSAGATYTWPWCF [Phage-941]	2.14	0.07	–	–	–

Binder	Anti-CD28 Fab (SEQ ID NOs: 202, 203) signal [1]	Anti-CD28 Fab signal in the presence of CD28 [2]	Anti-CD28 Fab signal in the presence of CD28 [3]	Anti-CD28 Fab (SEQ ID NOs: 202, 203) signal [4]	also measured
DCWWDSPYHWRVCL [Phage-1256]	–	–	0.07	0.57	–
TCAAGAVWQWPTCF [Phage-1248]	–	–	0.06	0.71	–
WCSAVFSYQWPVCL [Phage-1254]	–	–	0.06	0.61	–
NCSAGAQWPWPICL [Phage-936]	2.15	0.08	–	–	–
TCAAGAAYPWPLCF [Phage-930]	2.18	0.11	–	–	–
TCAAGAHWPWPTCF [Phage-938]	2.15	0.07	–	–	–
ECSAGAMWGWPACF [Phage-1246]	–	–	0.09	0.73	–
TCAAGAQLEWPWCF [Phage-1250]	–	–	0.07	0.7	–
RDWCPRDLWVHCFA (cysteine pairing not given here; also: biotinylated, site not given here) [Peptide-3]	–	–	–	–	Octet signal [6]: 1.22; t1/2 [6]: 4.9 min; EC50 [7]: 14.6 nM; Kd [8]: 20.3 nM; t1/2 [8]: 6.2 min; IC50 [9]: 170 nM
QDWCPRDLWVHCFA (cysteine pairing not given here; also: biotinylated, site not given here) [Peptide-6]	–	–	–	–	Octet signal [6]: 1.12; t1/2 [6]: 3.6 min; EC50 [7]: 25.7 nM; Kd [8]: 24.6 nM; t1/2 [8]: 4.2 min; IC50 [9]: 330 nM
TCSAGATYKWPMCF [Phage-1243]	–	–	0.07	0.77	–
MCAAGFHYPWPACL [Phage-927]	2.23	0.1	–	–	–
GCAAGFHYTLSTCL [Phage-1259]	–	–	0.05	0.42	–
PCSAGATYAWPYCL [Phage-1249]	–	–	0.09	0.71	–
TCSAGATWAWPLCF (cysteine pairing not given here; also: biotinylated, site not given here) [Peptide-104]	–	–	–	–	EC50 [5]: 15.6 nM
SCSAGAAYYWPWCL (cysteine pairing not given here; also: biotinylated, site not given here) [Peptide-103]	–	–	–	–	EC50 [5]: 112 nM
TCAAGAAYTWPHCF [Phage-1252]	–	–	0.11	0.69	–
SCAAGAMYSWPTCL [Phage-935]	2.16	0.08	–	–	–
TCAAGATYDWPSCL [Phage-1247]	–	–	0.08	0.71	–
